Results reported in paper PMC9394474 (2022).
Read-outs that look alike come from different tables or passages of the source. Ends that are not written are not given here.

Columns and labels:
human hisTRIM7- [1] = biological target: T1, human hisTRIM7- (human, UniProt Q9C029 342-511); test: ITC
human hisTRIM7- [2] = biological target: T1, human hisTRIM7-; test: ITC; remark: listed apart in the source

Binder: Ac-Leu-Gln [N-terminal acetylated LQ]
- Kd (human hisTRIM7- [1]): 144 µM

Binder: DNIKKKLDTYLQ [rbGYG1 322-333 peptide]
- Kd (human hisTRIM7- [2]): 21.1 µM
